According to patent publication US20080182795A1 (BOSTON MEDICAL CENTER, published 2008):
Where no end group is shown, it is not given here.

How the values were obtained:
[1] = target: T1, rat GIP receptor (rat, UniProt P43219 19-455); experiment: competition with [125I]GIP (porcine) for binding to LGIPR2 cells carrying the rat GIP receptor, room temperature
T1 construct: whole, on cells; LGIPR2 cells also carry a cAMP-dependent VIP promoter-lacZ reporter; also called LGIPR2 cells; LGIRP2 cells
T1 sequence (looked up): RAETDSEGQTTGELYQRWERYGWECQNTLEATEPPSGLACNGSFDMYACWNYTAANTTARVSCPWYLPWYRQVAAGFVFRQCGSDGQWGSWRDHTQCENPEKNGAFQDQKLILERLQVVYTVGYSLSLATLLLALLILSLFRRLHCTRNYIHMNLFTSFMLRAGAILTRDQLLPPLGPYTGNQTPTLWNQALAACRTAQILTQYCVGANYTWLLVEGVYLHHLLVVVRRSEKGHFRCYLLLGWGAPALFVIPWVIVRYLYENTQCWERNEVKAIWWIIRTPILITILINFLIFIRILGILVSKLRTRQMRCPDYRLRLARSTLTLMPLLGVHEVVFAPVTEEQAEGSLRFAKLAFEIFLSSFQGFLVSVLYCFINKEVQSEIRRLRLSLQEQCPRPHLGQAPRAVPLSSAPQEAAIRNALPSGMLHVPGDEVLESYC
Protocol: (§1) The specific activity of radiolabeled peptides was 10-50 μCi/mg (Hunter, et al., 1962, Nature, 194:495-498; Kieffer, et al., 1993, Can. J Physiol. Pharmacol., 71:917-922). Aliquots were lyophilized and reconstituted in assay buffer at 4° C. to a concentration of 3×10⁵ cpm/100 μl. […] The receptor binding buffer contained 138 mM NaCl, 5.6 mM KCl, 1.2 mM MgCl₂, 2.6 mM CaCl₂, 10 mM Hepes, 10 mM glucose, and 1% bovine serum albumin (BSA, fraction V, protease free, Sigma). […] Cells were washed once with PBS and then harvested with PBS-EDTA solution. βTC3 cells were then suspended in assay buffer at a density of 2×10⁶ cells/ml, and LGIPR2 cells were used at a density of 2.5×10⁵ cells/ml. […] Specific binding was defined as the difference between counts in the absence and presence of unlabeled peptide. […] Values are expressed as a percentage of maximum specific binding and are the mean ±SE, with assays performed in duplicate.

[2] = target: T2, GLP-1 receptor of βTC3 cells (mouse, UniProt O35659 22-463); experiment: competition with [125I]GLP-1 for binding to βTC3 cells (GLP-1 receptor), room temperature
T2 construct: whole, on cells; also called βTC3 cell receptor; GLP-1 receptors
T2 sequence (looked up): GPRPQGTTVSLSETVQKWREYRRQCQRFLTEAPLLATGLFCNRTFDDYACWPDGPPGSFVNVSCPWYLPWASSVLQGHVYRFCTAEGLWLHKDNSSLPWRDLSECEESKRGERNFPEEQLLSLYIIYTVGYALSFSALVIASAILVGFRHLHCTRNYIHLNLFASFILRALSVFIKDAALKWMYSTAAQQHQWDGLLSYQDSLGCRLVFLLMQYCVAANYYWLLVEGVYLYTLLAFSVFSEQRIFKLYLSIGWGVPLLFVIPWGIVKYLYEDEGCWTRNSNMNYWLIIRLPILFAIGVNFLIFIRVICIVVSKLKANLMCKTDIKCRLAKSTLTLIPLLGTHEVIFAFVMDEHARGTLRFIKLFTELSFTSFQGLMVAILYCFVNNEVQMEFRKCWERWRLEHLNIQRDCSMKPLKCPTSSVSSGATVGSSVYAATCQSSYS
Protocol: as §1

Binder ISDYSIAMDKIRQQDFVNWLLAQK-NH2 (also called ANTGIP; ANTGIIP) [GIP (7-30)-NH2] has an IC50 [1] of 0.2 µM and an IC50 [2] of 80 µM.
